Publication PMC10161063 (Proceedings of the National Academy of Sciences of the …, 2023)
Where two headings read alike, the source gives them in different places. Where no end group is shown, it is not given here.

B1: Halo-tag-conjugated tVac17 (Vac17 residues 290 to 344) (domain or fragment)
chain: SASFFRPSNPTFGTSISNVQVNCHPTVAATMAPSRNGPRISSSKALLSSFIARSD
modifications: also: Halo-tag conjugate
B2: Nvj1^229–321 (domain or fragment)
chain: NREKDCSSSSEVESQSKCRKESTAEPDSLSRDTRTTSSLKSSTSFPISFKGSIDLKSLNQPSSLLHIQVSPTKSSNLDAQVNTEQAYSQPFRY
B3: Atg13^567–695 (domain or fragment)
chain: GGNSSTSALNSRRNSLDKSSNKQGMSGLPPIFGGESTSYHHDNKIQKYNQLGVEEDDDDENDRLLNQMGNSATKFKSSISPRSIDSISSSFIKSRIPIRQPYHYSQPTTAPFQAQAKFHKPANKLIDNG

Experiments:
Test in all cases: ITC
[1] = target: T1, Vac8 (full length, residues 1 to 578) (S. cerevisiae, UniProt P39968 1-578)
T1 sequence: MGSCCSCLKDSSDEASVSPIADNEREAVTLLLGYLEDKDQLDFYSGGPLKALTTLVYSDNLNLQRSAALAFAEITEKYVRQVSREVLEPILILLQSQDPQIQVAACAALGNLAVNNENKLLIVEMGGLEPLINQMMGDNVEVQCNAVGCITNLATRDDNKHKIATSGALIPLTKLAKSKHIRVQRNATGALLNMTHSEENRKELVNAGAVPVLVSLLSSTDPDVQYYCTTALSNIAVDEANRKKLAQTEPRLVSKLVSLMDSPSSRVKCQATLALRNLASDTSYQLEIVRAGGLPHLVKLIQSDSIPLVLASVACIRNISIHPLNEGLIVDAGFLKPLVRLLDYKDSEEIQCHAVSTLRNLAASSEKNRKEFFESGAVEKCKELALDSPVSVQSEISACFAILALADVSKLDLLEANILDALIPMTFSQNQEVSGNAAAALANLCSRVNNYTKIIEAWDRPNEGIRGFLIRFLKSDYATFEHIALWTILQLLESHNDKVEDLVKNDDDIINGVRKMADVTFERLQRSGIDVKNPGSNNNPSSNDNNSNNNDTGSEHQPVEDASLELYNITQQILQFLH

[2] = target: T2, preformed Vac8–tVac17 complex (ITC sample cell) (S. cerevisiae, UniProt P39968;P25591)
T2 sequence 1: T1 sequence
T2 sequence 2: B1 chain

[3] = target: T1, Vac8 (full length, residues 1 to 578); remark: listed apart in the source

| Binder | Kd [1] [µM] | Kd [2] [µM] | Kd [3] [µM] |
| --- | --- | --- | --- |
| B1 | 2.53 |  |  |
| B2 |  | 10 | 0.71 |
| B3 |  | 9.02 |  |
